Source: the DeepSol protein solubility set

experiment: soluble on expression in E. coli; label from the status in PepcDB or PDB records

Row | Sequence | soluble on expression in E. coli
1 | MGSDKIHHHHHHMSESYYGLLDEEKVFKDPVHRYIHVRDELIWALIGTKEFQRLRRVRQLGTTFLTFHGAEHTRFNHSLGVYEITRRIIEVFQGRPYWNEEERLLTLCAALLHDIGHGPFSHSFEKVFDTDHEEWTRRMIVGDTEIHNVLLKMGDDFPQKVADVIEKTYPNKLVTSIISSQIDADRMDYLQRDAYYTGVSYGHFDMERILRVMRPMEDQVVIKQSGMHAVEDYIMSRYQMYWQVYFHPVTRSAEVILSKVFKRVKDLYEQGYKFKQEPKHFYSLFEGNMSLDDYLRLDESITMYYFQIWQEEEDRILSDLCVRFINRQLFKYIEFNPNLQMNDWPRLQQLFAQAEIDPEYYLVVDSSSDLPYDFYRPGEEEERLPIHLIMPNGKLRELSRESDVVEAISGKKRTDHKLYFPMDCLTDQSDHKEIKQEILSLLFK | not soluble
2 | MSLTLRDVAAEAGVSPMTASNALRGKPGVKESTRAKVIAAAKKLNYRINLTASMLKSGRSNIIHVIVNEFDSPFYSKLTQALSNEIVSRGLIPFIEQTQYSPDAAEHALSSNPFSGQLFDGEILHATGLGTNVPLSKLNGGRPFVLLDACEETPTVDAVNFPNEEAERAAMQHLIDRGCRNIAIVGHRFAPRADLAHAQNAFALRLRGACGALSDAGLPYDESMVFEAGDVANGIIAGHAIAERILAARSGHGGTEFDGACCANDFAAFGVIRGLADRGLRVPQDVKVIGFDGVTSGSYTTPALSTIQVDFMQLAKFSVDMLSERIDHGADEALPPRRAIIGYQLVDRESTAEGHHHHHH | soluble
3 | MEQQIQMDEQENDESQGNDDQQNMSMSSSELHTMQDDHPGILLKTNTRMSITVKKLHVCGEWKWLQGGEDTCGICRMEFESACNMCKFPGDDCPLVLGICRHAFHRHCIDKWIAAPTNQPRAQCPLCRQDWTIVE | not soluble
4 | NRSLNELSLSDILIAADVEGGLHAVDRRNGHIIWSIEPENFQPLIEIQEPSRLETYETLIIEPFGDGNIYYFNAHQGLQKLPLSIRQLVSTSPLHLKTNIVVNDSGKIVEDEKVYTGSMRTIMYTINMLNGEIISAFGPGSKNGYFGSQSVDCSPEEKIKLQECENMIVIGKTIFELGIHSYDGASYNVTYSTWQQNVLDVPLALQNTFSKDGMCIAPFRDKSLLASDLDFRIARWVSPTFPGIIVGLFDVFNDLRTNENILVPHPFNPGDHESISSNKVYLDQTSNLSWFALSSQNFPSLVESAPISRYASSDRWRVSSIFEDETLFKNAIMGVHQIY | soluble
5 | MNEHHQPFEEIKLINANGAEQWSARQLGKLLGYSEYRHFIPVLTRAKEACENSGHTIDDHFEEILDMVKIGSNAKRALKDIVLSRYACYLVVQNGDPAKPVIAAGQTYFAIQTRRQELADDEAFKQLREDEKRLFLRNELKEHNKQLVEAAQQAGVATATDFAIFQNHGYQGLYGGLDQKAIHQRKGLKKNQKILDHMGSTELAANLFRATQTEEKLKRDGVNSKQQANTTHFDVGRKVRQTIQELGGTMPEELPTPQVSIKQLENSVKITEKK | soluble
6 | MFMKYALFPGCKIAFERPDLELAMREVLTALDVPFEYLSDFSCCPTWASVPSFDIEAWLAISARNISLAEEKGLDIVVGCGDCYSVLNHARDMLKREEWRERVNRILAKVGRVYRGTTKIYHIIHLLEERKIKKNLKHRLNGFVAGVQPGCHLLWPAKIFDAKEENPFFPERLKKLVEAMGAETPHYSRLEYCCGNHIDIVDYEKFLDFVQLKLQSLKEEIDPDFIVTACSTCFIQLDEGQKRLKRLGRIDYEIPVFHFPQLLAICLGSNPEKVARISSVDRSKIISEILEGRE | not soluble
7 | MGGSHHHHHHGMASALVKSRLNSWFQHRPPGASPERYLGLPGSLKWEDRGPSGQGQGQFLIQQVTLKIPISIEFVFESGSAQAGGNQALPRLAGSLLTQALESHAEGFRERFEKTFQLKEKGLSSGEQVLGQAALSGLLGGIGYFYGQGLVLPDIGVEGSEQKVDPALFPPVPLFTAVPSRSFFPRGFLWDEGFHQLVVQRWDPSLTREALGHWLGLLNADGWIGREQILGDEARARVPPEFLVQRAVHANPPTLLLPVAHMLEVGDPDDLAFLRKALPRLHAWFSWLHQSQAGPLPLSYRWRGRDPALPTLLNPKTLPSGLDDYPRASHPSVTERHLDLRCWVALGARVLTRLAEHLGEAEVAAELGPLAASLEAAESLDELHWAPELGVFADFGNHTKAVQLKPRPPQGLVRVVGRPQPQLQYVDALGYVSLFPLLLRLLDPTSSRLGPLLDILADSRHLWSPFGLRSLAASSSFYGQRNSEHDPPYWRGAVWLNVNYLALGALHHYGHLEGPHQARAAKLHGELRANVVGNVWRQYQATGFLWEQYSDRDGRGMGCRPFHGWTSLVLLAMAEDY | not soluble
8 | MSLNIETKKVAVEEISAAIANAQTLVVAEYRGISVSSMTELRANARKEGVYLRVLKNTLARRAVQGTSFAELADQMVGPLVYAASEDAVAAAKVLHQFAKKDDKIVVKAGSYNGEVMNAAQVAELASIPSREELLSKLLFVMQAPVSGFARGLAALAEKKAGEEAA | not soluble
9 | MSLADPADISAASRSVVRVVIIESDGDRANLITHGTGFAVTPNLIVTNAHVVEELRRDDTLIAGVVPAEGRNGFPAKLVAYSPGNDLALLRIEGGGSITPITLFPGAPGDGSEVYAVGYPGNVDLAQGLSMADLVTPQAAVKTRGYLSGGRSSRSFDTLLHTAPLGSGNSGGPLLDSCGRVIGVNSFGTVSDNSTDSAFYFAISMRELSAFLRRANVDAHTSGLPCRSIADLDRAEAERAAGEQARLAAQTAAQADAKQRAMDKARRDAELAILSERDNGEGHHHHHH | soluble
10 | MKFDPTSPSLNIMLANPRGFCAGVDRAISIVERALELFSPPIYVRHEVVHNRYVVQNLKDRGAVFVEELDQVPDNNIVIFSAHGVSQAVRAEAKARGLRVFDATCPLVTKVHLQVTRASRKGIECILIGHAGHPEVEGTMGQYDNPNGGVYLIESPADVETLEVRDPNNLCFVTQTTLSVDDTLDIISALLKRFPSIEGPRKDDICYATQNRQDAVRNLSADVDLLIVVGSKNSSNSNRLRELALKTGTQSYLVDTADDIDSSWFENITKVAVTAGASAPEVLVQQVVQAIAKLAPSVVTEVEGRKEDTVFAVPAELR | soluble
11 | MGSDKIHHHHHHETEAPQVTTSSRPAVEIKYNDPRDPFEEVNRTMWDFNYLFLDRYVIRPVAHGYKDYVPNPVRTGVNNFVYNLEEPSSLVNNTLQGKWGWAANAGGRFTVNTTIGLLGLVDVADMMGMHRKQDDFNEVLGYYGTPNGPYFMAPFYGPIVTREIASDWVDGLYFPLSELTIWQSVLKWGLKGLDARSKAIDQERLLDNALDPYAFVKDAYLQHMDYKVFDGDVPSSQADDELLDEYLDELE | not soluble
12 | MASVPTHQSEKEKKNDELSTAILKDKVKPNRLIVDQSEQDDNSVIAVSQAKMDELGLFRGDAVILKGKKRKESVAIIVSDESCPNEKVRMNRVVRNNLRIRLGDVVSITPAPNLSYGTRIHVLPIDDTIEGLTGNLFDVFLKPYFLEAYRPLHKGDIFTVQAAMRTVEFKVVETEPAPACIVSPDTMIHYEGDPIKREEEEESMNDIGYDDLGGVRKQLAQIKEMVELPLRHPQLFKAIGIKPPRGILLFGPPGTGKTLIARAVANETGSFFFLINGPEVMSKMSGESESNLRKAFEECEKNQPAILFIDEIDAIAPKREKTNGEVERRIVSQLLTLMDGVKGRSNLVVIAATNRPNSIDGALRRFGRFDREIDIGIPDAVGRLEILRIHTKNMKLADDVDLEQIANECHGFVGADLASLCSEAALQQIREKMELIDLEDDQIDAEVLNSLAVTMENFRFAQGKSSPSALREAVVETPNTTWSDIGGLQNVKRELQELVQYPVEHPEKYLKFGMQPSRGVLFYGPPGCGKTLLAKAIANECQANFISIKGPELLTMWFGESEANVRDVFDKARAAAPCVLFFDELDSIAKARGGGAGGDGGGASDRVINQVLTEMDGMNAKKNVFIIGATNRPDIIDPAVLRPGRLDQLIYIPLPDEASRHQILKASLRKTPLSKDLDLTFLAKNTVGFSGADLTEICQRACKLAIRESIEKEIRIEKERQDRQARGEELMEDDAVDPVPEITRAHFEEAMKFARRSVTDNDIRKYEMFAQTLQQSRGFGNNFKFPGEQRGSDAPSAPVPAQDDDDLYN | soluble
13 | MGSDKIHHHHHHMSRTADSLPSTRQRRKEARPQELLDAALDLFVEKGFAATRSEEVAARAGVSKGTLYLYYPSKEELLKAVIRENISQEIAEGEDIVRGFDGPTAELLAHLMAEWWRRIGETRASGICKLIISEVRNFPDIAQFYLDEVVLPAERMIGGVVQRGIDRGEFRPVAVDDVVHALMAPMLFLMLHKHSMGACPNLDRRLDAPRVVAMQVDLVLNGLVPRTAPRGGPRKAKA | not soluble
14 | MSLPKEEILTGPAVIKIVSTYMGPEHVELVQKALTYAEKAHEGQVRQSGEPYIIHPIQVAGILAELHMDPHTVATGFLHDVVEDTDVTLDDLKEEFGEDIAMLVDGVTKLGKIKYKSHEEQLAENHRKMLLAMAQDLRVIMVKLADRLHNMRTLKHLREDKQRRIAQETLEIYAPLAHRLGISRIKWELEDTALRYINPNQYYRIVNLMQSKRDEREAYVAEAVEDIRLATEDLEIYAEIYGRPKHIYSIYRKMKDQKKQFNEIYDLLAIRVIVDSIKDCYAVLGAIHTRWTPMPGRFKDYIAMPKANMYQSIHTTVIGPKGNPVEVQIRTHEMHQIAEFGVAAHWAYKEGKAEKIETDELTKQVDWFHEIIELQDESYDASEFMQGVKEDIFSDKVYVFTPSGDVTELPKGSGPLDFAYSIHTEIGNKTTGAKVNGKMVQLDYVLKNGDIIEVLTSPNSFGPSRDWLKMVKTSKAKNKIKRFFKEQDREDNIIKGHDAVIKYMTEIGFTPKEFLTKNKMAEVLDKFKFQTEDDLFAAVGYGEVSAQVVCNRLTEKERREQELERQRQEAEELLNQPAKKESEKMKVRHEGGIVIQGVDNLLIRLSRCCNPVPGDEIVGYITKGRGVSIHRADCPNVQHQEELAQRLIEVEWEDTEHSRKEYAADLEIYGYDRSGLLSDVLQVISSMTKNLVGVEARPSKDKMAQIHVTVKIQNLSHLKTIVDKIKSVPDVYSVRRTNGEGHHHHHH | soluble
15 | MGSDKIHHHHHHMRESVVKLNEYTLRIFSLNTIVVGSGAAGLNAVDRVFSFGQKDVALLTDNLKWGTSRNTGSDKQTYYKLTLAGNVPDSVYELAETLFNGGSMDGDIALVEAALSARAFFRLVELGVPFPHSRYGEYVGYKTDHDPKQRATSAGPLTSYYMCEKLLEEIRRKGIKIFEGYQVIGILTDRNEEKTIGLIALDLNNIDDPEKRYVLFNVKNIIYATGGPAGMFYFHSVYPPVHFGATGIAFEAGVMGKNLTEWQFGIASKKFRWNLSGTYQQVIPRYVSTDENGNDEREFLEEYFPDPSTMLNAIFLKGYQWPFDVRKIKNYGSSLIDILVFYETVIKGRRVWLDFTRNPSWGSKNGELDFSLLGKEAYEYLKNSGALFGRPIDRLEKMNRPAIEVYLQHGIDLRKEYLEIGVCAQHNNGGLHGNIWWESNLKHFFPVGEVNGSHGVYRPGGSALNSGQVGGVRAAQYIVENYSGDPLCEEEILEEAKDQILKKIELGESFVKKITGKSNVSSILKEISERSMRSMGIVRSLEEAGKGKNEALRDFNNLIEKVELSSIRQLPFAFRLYDVLLTQYVYLSAVENYIESGGKSRGSYIVHDPTGELPVPNLPEMFRYSLAGESFNKKIQRVRCKENRCEFFWDPVKEIPREDTWFETIWNSFMRREVFR | not soluble
16 | MGSDKIHHHHHHMKKSERLNQELFFLRTHPQFNLNQLMKTFGISKSTALRDIEALENLGVPLYVENGRYGGYRVLNKPLLPPIYFNENEVLAIFFSLQLLKLVAESPFGHSYQQIKQKLLHSLDEPTQFKISQMSKVVYYEGIEQVEAPGNLEQLFHCILAQQVIQFNYTRYEATTKKILPTRLTILEGYWYCSGYDVTKKAWRTYRCDFMEAIQQLNQTLDFTTEELKESYRHQQTTARTIPFKAIITEKGKEFFYKHRFDNIQLEETPTQCFLVGQIHPTETQFLANYFMGFGEEVTILDPVQVKQAYVESIMRIQKKYQE | not soluble
